{"source": "patent US20210087239A1", "about": "(ACADEMIA SINICA, published 2021)", "binders": {"B1": {"name": "Flag-tagged PTK6 kinase-dead mutant (PTK6-K219M) (enzyme)", "chain": "not shown", "notes": "also called PTK6-KM; KM mutant; not shown: Flag tag"}, "B2": {"name": "EGFP-conjugated PSPC1-CT131 (PSPC1 C-terminal 131 fragment) (other)", "chain": "MGDMGPRGAINMGDAFSPAPAGNQGPPPMMGMNMNNRATIPGPPMGPGPAMGPEGAANMGTPMMPDNGAVHNDRFPQGPPSQMGSPMGSRTGSETPQAPMSGVGPVSGGPGGFGRGSQGGNFEGPNKRRRY", "notes": "PSPC1-CT131 cloned into pEGFP-C2 and expressed in Mahlavu cells; also called PSPC1-CT131-EGFP; EGFP-PSPC1-CT; not shown: EGFP from the pEGFP-C2 plasmid"}, "B3": {"name": "Paraspeckle component 1 (PSPC1), human (other)", "chain": "MMLRGNLKQVRIEKNPARLRALESAVGESEPAAAAAMALALAGEPAPPAPAPPEDHPDEEMGFTIDIKSFLKPGEKTYTQRCRLFVGNLPTDITEEDFKRLFERYGEPSEVFINRDRGFGFIRLESRTLAEIAKAELDGTILKSRPLRIRFATHGAALTVKNLSPVVSNELLEQAFSQFGPVEKAVVVVDDRGRATGKGFVEFAAKPPARKALERCGDGAFLLTTTPRPVIVEPMEQFDDEDGLPEKLMQKTQQYHKEREQPPRFAQPGTFEFEYASRWKALDEMEKQQREQVDRNIREAKEKLEAEMEAARHEHQLMLMRQDLMRRQEELRRLEELRNQELQKRKQIQLRHEEEHRRREEEMIRHREQEELRRQQEGFKPNYMENREQEMRMGDMGPRGAINMGDAFSPAPAGNQGPPPMMGMNMNNRATIPGPPMGPGPAMGPEGAANMGTPMMPDNGAVHNDRFPQGPPSQMGSPMGSRTGSETPQAPMSGVGPVSGGPGGFGRGSQGGNFEGPNKRRRY", "notes": "Endogenous PSPC1 of human HCC cell lines (Huh-7, Mahlavu); also called endogenous PSPC1; nuclear PSPC1"}, "B4": {"name": "PSPC1-Y523F mutant (HA-tagged) (other)", "chain": "B3 chain with Y523F", "notes": "All PSPC1 mutants were generated in a pCDNA3.0-HA plasmid; also called Y523F PSPC1 mutant; HA-tagged Y523F mutant; not shown: HA tag from the pCDNA3.0-HA plasmid"}}, "key": {"[1]": {"biological_target": "T1, HA-tagged PSPC1 (wild type) (human, UniProt Q8WXF1 1-523)", "T1 construct": "Full-length PSPC1 cDNA cloned into pcDNA3.0-HA and expressed in 293T or SK-hep1 cells; also called HA-PSPC1; wild-type PSPC1; not shown: HA tag from the pcDNA3.0-HA plasmid", "T1 sequence": "B3 chain", "experiment": "subcellular fractionation and western blotting, SK-hep1 cells (FIG. 1e)"}, "[2]": {"biological_target": "B3", "experiment": "conclusion drawn from expression and fractionation experiments in Mahlavu cells; no direct binding assay described"}, "β-catenin [3]": {"biological_target": "T2, β-catenin (human, UniProt P35222 2-781)", "T2 construct": "Endogenous protein co-immunoprecipitated from cell lysates or nuclear fractions; also called nuclear β-catenin", "T2 sequence (looked up)": "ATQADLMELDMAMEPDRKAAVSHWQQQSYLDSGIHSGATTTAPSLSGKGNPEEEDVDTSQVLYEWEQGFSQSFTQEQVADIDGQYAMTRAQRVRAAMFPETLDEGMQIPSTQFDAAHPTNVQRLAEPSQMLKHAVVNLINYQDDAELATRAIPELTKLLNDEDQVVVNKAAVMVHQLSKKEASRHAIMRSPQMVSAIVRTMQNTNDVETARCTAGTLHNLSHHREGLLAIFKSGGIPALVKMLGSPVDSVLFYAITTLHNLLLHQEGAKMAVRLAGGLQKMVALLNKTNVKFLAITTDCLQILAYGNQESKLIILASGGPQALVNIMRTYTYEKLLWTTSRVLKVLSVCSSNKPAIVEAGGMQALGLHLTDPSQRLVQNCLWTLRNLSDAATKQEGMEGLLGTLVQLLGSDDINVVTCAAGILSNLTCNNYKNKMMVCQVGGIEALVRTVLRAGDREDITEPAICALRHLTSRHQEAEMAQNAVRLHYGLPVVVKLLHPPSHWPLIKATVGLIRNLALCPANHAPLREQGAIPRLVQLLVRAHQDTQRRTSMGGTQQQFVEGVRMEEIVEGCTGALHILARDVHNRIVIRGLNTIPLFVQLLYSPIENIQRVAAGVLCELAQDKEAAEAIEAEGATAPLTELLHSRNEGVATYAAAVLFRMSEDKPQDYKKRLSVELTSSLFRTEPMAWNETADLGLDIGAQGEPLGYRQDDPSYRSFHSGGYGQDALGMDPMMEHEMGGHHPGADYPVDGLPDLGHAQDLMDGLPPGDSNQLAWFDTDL", "experiment": "IP/western blotting, Huh-7 cells with HGF stimulation (FIG. 3b)", "protocol": "(§1) (a-b) Huh-7 treated with or without HGF (10 ng/ml) for EMT induction. Under HGF stimulation, nuclear PSPC1 interacted with β-catenin and loss of PTK6 interaction owing to an increase of cytosolic PTK6 accumulation in HGF-induced EMT model in IP/westem blotting analysis. Arrowhead is the IgG heavy chain. Arrows are indicated proteins after IB. (c) Nuclear (SP1 as marker) and cytosolic (α-tubulin as marker) localization of PSPC1/PTK6 interaction and β-catenin analyzed by western blotting analysis in SK-hep1 cells. PSPC1-Y523F mutant further enhanced nuclear localization of β-catenin. (d) Nuclear (SP1 as marker) localization of PSPC1/PTK6 interaction and βcatenin analyzed by IP/western blotting analysis in SK-hep1 cells. Y523F PSPC1 mutant further enhanced nuclear interaction with β-catenin but not PTK6. […] Promoter activation (fold) was calculated relative to vector alone (Mock) in cells. […] (h) Secreted cytokines Wnt1 and Wnt3a protein expression measured by ELISA assays of conditional medium after transfection of divergent PSPC1/PTK6 expression constructs in SK-hep1 cells."}, "β-catenin [4]": {"biological_target": "T2, β-catenin", "experiment": "IP/western blotting of nuclear fraction, SK-hep1 cells (FIG. 3d)", "protocol": "as §1"}}, "note": "Where a chain is given by its changes, count along the chain named. In names and notes the source's numbering stands."}
{"binder": "B1", "values": [{"measurement": "binding result", "setting": "[1]", "result": "no binding"}]}
{"binder": "B2", "values": [{"measurement": "binding result", "setting": "[2]", "result": "binds"}]}
{"binder": "B3", "values": [{"measurement": "binding result", "setting": "β-catenin [3]", "result": "binds"}]}
{"binder": "B4", "values": [{"measurement": "binding result", "setting": "β-catenin [4]", "result": "binds"}]}
